The source of these data is paper PMC11242946, “Inhibition of ACE2–S Protein Interaction by a Short Functional Peptide with a Boomerang Structure” (Molecules, 2024).

For the assay, the target named is ACE2 on Vero E6 cells (monkey (endogenous in Vero E6)). As to the kind of experiment: flow cytometry on cells. (A flow cytometer gives signals particle by particle.)

On to functional peptide KYPAY (K5), for which the IC50 (commonly the concentration that inhibits the measured activity by half) amounted to 6.7 µM.
